{"source": "paper PMC3243729", "biological_target": "EGFP-N-Talin1-C-mCherry (UniProt P26039)", "assay": "single-molecule photobleaching step counting and point spread function fit (TIRF microscopy); living CV1 cells with low expression of EGFP-Talin1-mCherry; EGFP spots more than 500 nm from other EGFPs; bleaching steps counted and the spot shape fitted to a single or a dimeric PSF", "conditions": "remark: other sources report otherwise"}
{"substance": "EGFP-N-Talin1-C-mCherry, P26039 1-2541", "values": [{"measurement": "stoichiometry N", "result": 2}]}
